In patent US20170368168A1 (AGENUS, published 2017):

T1: human TIM-3 expressed on cells (human, UniProt Q8TDQ0 22-301)
T1 construct: also called T cell immunoglobulin and mucin domain-3; HAVCR2
T1 sequence: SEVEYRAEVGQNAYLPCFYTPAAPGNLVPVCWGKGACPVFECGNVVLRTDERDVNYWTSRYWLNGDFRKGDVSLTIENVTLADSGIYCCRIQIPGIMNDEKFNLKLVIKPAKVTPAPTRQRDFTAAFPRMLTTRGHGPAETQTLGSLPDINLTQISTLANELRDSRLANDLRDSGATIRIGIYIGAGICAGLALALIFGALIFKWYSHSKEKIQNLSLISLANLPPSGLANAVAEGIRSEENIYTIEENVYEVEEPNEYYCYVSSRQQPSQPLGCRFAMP

B1: pab2174 (IgG1) (antibody, V domains shown)
VH: not shown
VL: EIVLTQSPATLSLSPGERATLSCRASQSVSSYLAWYQQKPGQAPRLLIYDASNRATGIPARFSGSGSGTDFTLTISRLEPEDFAVYYCQQYGSSPLTFGGGTKVEIK
B2: pab2191 (IgG1) (antibody, V domains shown)
VH: not shown
VL: EIVLTQSPGTLSLSPGERATLSCRASQSVSSYLAWYQQKPGQAPRLLIYDASNRATGIPARFSGSGSGTDFTLTISRLEPEDFAVYYCQQYGSSPLTFGGGTKVEIK
B3: pab2179 (IgG1) (antibody, V domains shown)
VH: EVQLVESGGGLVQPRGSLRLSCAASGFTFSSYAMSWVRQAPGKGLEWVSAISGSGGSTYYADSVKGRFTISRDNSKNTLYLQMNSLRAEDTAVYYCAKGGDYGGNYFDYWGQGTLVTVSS
VL: EIVLTQSPGTLSLSPGERATLSCRASQSVSSYLAWYQQKPGQAPRLLIYDASSRATGIPDRFSGSGSGTDFTLTISRLEPEDFAVYYCQQYGSSPLTFGGGTKVEIK
B4: pab2189 (IgG1) (antibody, V domains shown)
VH: not shown
VL: EIVLTQSPATLSLSPGERATLSCRASQSVSSYLAWYQQKPGQAPRLLIYDASNRATGIPARFSGSGSGTDFTLTISRLEPEDFAVYYCQQYGSSPLTFGGGTKVEIK
B5: pab2177 (IgG1) (antibody, V domains shown)
VH: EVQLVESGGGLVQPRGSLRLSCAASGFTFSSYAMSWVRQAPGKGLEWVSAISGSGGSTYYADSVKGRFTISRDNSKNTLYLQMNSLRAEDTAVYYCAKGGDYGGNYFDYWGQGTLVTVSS
VL: EIVLTQSPGTLSLSPGERATLSCRASQSVSSYLAWYQQKPGQAPRLLIYDASNRATGIPARFSGSGSGTDFTLTISRLEPEDFAVYYCQQYGSSPLTFGGGTKVEIK
B6: pab2176 (IgG1) (antibody, V domains shown)
VH: not shown
VL: EIVLTQSPGTLSLSPGERATLSCRASQSVSSYLAWYQQKPGQAPRLLIYDASNRATGIPARFSGSGSGTDFTLTISRLEPEDFAVYYCQQYGSSPLTFGGGTKVEIK
B7: pab2182 (IgG1) (antibody, V domains shown)
VH: not shown
VL: EIVLTQSPGTLSLSPGERATLSCRASQSVSSYLAWYQQKPGQAPRLLIYGASSRATGIPARFSGSGSGTDFTLTISRLEPEDFAVYYCQQYGSSPITFGGGTKVEIK
B8: pab2180 (IgG1) (antibody, V domains shown)
VH: not shown
VL: EIVLTQSPGTLSLSPGERATLSCRASQSVSSYLAWYQQKPGQAPRLLIYDASSRATGIPDRFSGSGSGTDFTLTISRLEPEDFAVYYCQQYGSSPLTFGGGTKVEIK
B9: pab2186 (IgG1) (antibody, V domains shown)
VH: not shown
VL: EIVLTQSPATLSLSPGERATLSCRASQSVSSYLAWYQQKPGQAPRLLIYDASNRATGIPARFSGSGSGTDFTLTISSLEPEDFAVYYCQQYGSSPLTFGGGTKVEIK
B10: pab2192 (IgG1) (antibody, V domains shown)
VH: not shown
VL: EIVLTQSPGTLSLSPGERATLSCRASQSVSSYLAWYQQKPGQAPRLLIYGASSRATGIPARFSGSGSGTDFTLTISRLEPEDFAVYYCQQYGSSPITFGGGTKVEIK
B11: pab2173 (IgG1) (antibody, V domains shown)
VH: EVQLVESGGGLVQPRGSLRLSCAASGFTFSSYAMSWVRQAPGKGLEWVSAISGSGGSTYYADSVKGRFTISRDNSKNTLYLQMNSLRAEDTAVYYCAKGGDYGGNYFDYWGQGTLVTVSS
VL: EIVLTQSPATLSLSPGERATLSCRASQSVSSYLAWYQQKPGQAPRLLIYDASNRATGIPARFSGSGSGTDFTLTISRLEPEDFAVYYCQQYGSSPLTFGGGTKVEIK
B12: pab2178 (IgG1) (antibody, V domains shown)
VH: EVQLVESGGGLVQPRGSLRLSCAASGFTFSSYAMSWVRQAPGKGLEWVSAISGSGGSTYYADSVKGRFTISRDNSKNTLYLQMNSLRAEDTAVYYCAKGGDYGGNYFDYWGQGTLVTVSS
VL: EIVLTQSPATLSLSPGERATLSCRASQSVSSYLAWYQQKPGQAPRLLIYDASNRATGIPASFSGSGSGTDFTLTISRLEPEDFAVYYCQQYGSSPLTFGGGTKVEIK
B13: pab2175 (IgG1) (antibody, V domains shown)
VH: not shown
VL: EIVLTQSPATLSLSPGERATLSCRASQSVSSYLAWYQQKPGQAPRLLIYDASNRATGIPASFSGSGSGTDFTLTISRLEPEDFAVYYCQQYGSSPLTFGGGTKVEIK
B14: pab2184 (IgG1) (antibody, V domains shown)
VH: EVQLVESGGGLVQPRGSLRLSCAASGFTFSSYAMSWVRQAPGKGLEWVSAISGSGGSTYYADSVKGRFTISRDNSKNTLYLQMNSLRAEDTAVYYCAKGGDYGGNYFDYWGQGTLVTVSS
VL: EIVLTQSPGTLSLSPGERATLSCRASQSVSSYLAWYQQKPGQAPRLLIYGASSRATGIPARFSGSGSGTDFTLTISRLEPEDFAVYYCQQYGSSPITFGGGTKVEIK

Target: T1, human TIM-3 expressed on cells
Experiment: flow cytometry, 1624-5 cells expressing human TIM-3

Binding result, binds:
B1
B2
B3
B4
B5
B6
B7
B8
B9
B10
B11
B12
B13
B14
